Laboratory results published in PMC10294536.

Key:
Settings in all cases: reference: EGFP-HURP wild type; sites S725
[1] = biological target: GRASP65 (UniProt Q9BQQ3); assay: co-IP of EGFP-HURP with GRASP65
[2] = biological target: GP73 (UniProt Q8NBJ4); assay: co-IP of EGFP-HURP with GP73
[3] = biological target: GM130 (UniProt Q08379); assay: co-IP of EGFP-HURP with GM130

binding against the reference [1]: lost
binding against the reference [2]: lost
binding against the reference [3]: lost
Substance: HURP (from UniProt Q15398) EGFP-HURP 725A
